Tests used:
[1] = target: rat Dkk-1 (rat); assay: KinExA 3000 equilibrium binding in solution, Dkk-1-coated beads
Source text: (§1) It was apparent from the BiaCore results that 11H10 had the higher affinity for Dkk-1, and that its affinity for target exceeded the sensitivity limits of the BiaCore assay. Accordingly, the affinity of binding of 11H10 to Dkk-1 was further assessed by an equilibrium binding analysis using the more sensitive KinExA® 3000 (Sapidyne Instruments Inc., Boise, Id.). For these measurements, Reacti-Gel 6× beads (Pierce, Rockford, Ill.) were pre-coated with either mouse, rat or human Dkk-1 and blocked with BSA. One hundred pM, 300 pM, or 1000 pM of the 11H10 antibody was mixed with various concentrations of human, mouse or rat Dkk-1, ranging in concentration from 1 pM to 50 nM, and equilibrated at room temperature for 8 hours. The mixtures were then passed over the Dkk-1-coated beads. The amount of bead-bound anti-Dkk-1 antibody was quantified using goat anti-rat-IgG antibody labeled with a fluorescent tag (Cy5; Jackson Immuno Research, West Grove, Pa.). The amount of fluorescent signal measured was proportional to the concentration of free anti-Dkk-1 antibody in each reaction mixture at equilibrium. The dissociation equilibrium constant (Kd) was obtained from nonlinear regression of the competition curves using a dual-curve one-site homogeneous binding model using the KinExA software.

[2] = target: T1, human Dkk-1 (human, UniProt O94907 32-266, carbohydrate moieties attached to Asn256); assay: as above
T1 construct: Recombinant; also called hDkk-1; human dickkopf-1
T1 sequence: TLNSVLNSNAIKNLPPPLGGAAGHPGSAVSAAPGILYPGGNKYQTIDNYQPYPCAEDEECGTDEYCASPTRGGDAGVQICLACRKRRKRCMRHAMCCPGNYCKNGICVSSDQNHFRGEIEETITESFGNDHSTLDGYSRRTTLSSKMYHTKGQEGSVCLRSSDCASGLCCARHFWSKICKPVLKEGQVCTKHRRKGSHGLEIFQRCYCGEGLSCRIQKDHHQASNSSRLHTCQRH
Source text: as §1

[3] = target: T2, murine Dkk-1 (mouse, UniProt O54908 32-272); assay: as above
T2 construct: also called mouse Dkk-1; muDkk-1
T2 sequence: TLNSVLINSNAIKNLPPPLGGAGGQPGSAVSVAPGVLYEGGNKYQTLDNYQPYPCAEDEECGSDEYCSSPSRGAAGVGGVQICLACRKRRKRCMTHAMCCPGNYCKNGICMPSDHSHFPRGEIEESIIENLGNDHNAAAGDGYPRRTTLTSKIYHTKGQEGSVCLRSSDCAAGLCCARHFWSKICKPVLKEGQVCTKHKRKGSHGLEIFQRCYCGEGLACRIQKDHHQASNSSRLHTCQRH
Source text: as §1

[4] = target: T3, CNBr2 fragment of human Dkk-1 (human, UniProt O94907 32-122; O94907 127-178); assay: BiaCore
T3 construct: Two peptides held together by disulfide bonds; represents disulfide domain 1
T3 sequence 1: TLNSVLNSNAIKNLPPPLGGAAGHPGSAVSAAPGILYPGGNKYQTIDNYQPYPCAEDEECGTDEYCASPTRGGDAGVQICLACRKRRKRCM
T3 sequence 2: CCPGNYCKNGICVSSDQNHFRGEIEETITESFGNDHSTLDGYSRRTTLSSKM
Protocol: To characterize this conformational epitope, a strategy was applied that involved fragmenting human Dkk-1 with cyanogen bromide (CNBr) and several different proteases, then testing the resulting fragments to see whether they could still bind to the 11H10 antibody. The resulting data permitted the location of the epitope to be determined. In brief, the peptide digests were incubated with or without the antibody, passed through a 10 K cut-off membrane to trap any peptides that had become bound to the antibody (˜150,000 Da), then subjected to HPLC peptide mapping. […] The individual HPLC peaks were collected and the peptides identified and mapped by N-terminal sequencing. To determine if the peptides could bind 11H10, they were subjected to real time biospecific interaction assays with a BiaCore work station, using Protein A-trapped anti-Dkk-1 antibody as a biosensor for binding.
CNBr cleavage of hDkk-1 generated two large fragments, CNBr1 and CNBr2. These represented, respectively, disulfide domain 2 and disulfide domain 1. […] CNBr2 similarly consisted of two peptides (amino acids 32-122 of SEQ ID NO:2 and amino acids 127-178 of SEQ ID NO:2), also held together by disulfide bonds. […] Thus, it was concluded that 11H10 binds to an epitope located in disulfide domain 2 of Dkk-1.

[5] = target: rat Dkk-1 (rat); assay: cell-based or functional assay
[6] = target: T1, human Dkk-1; assay: cell-based or functional assay
[7] = target: T2, murine Dkk-1; assay: cell-based or functional assay
[8] = target: T1, human Dkk-1; assay: cell-based or functional assay; remark: listed apart in the source
[9] = target: T2, murine Dkk-1; assay: cell-based or functional assay; remark: listed apart in the source
[10] = target: rat Dkk-1 (rat); assay: SPR, BiaCore 2000, Dkk-1 immobilized on CM5 chip, antibody injected
Protocol: (§2) Kinetic analyses were performed to study the binding of the 11H10 and 1F11 antibodies to Dkk-1 using BiaCore 2000 (BIACORE, Uppsala, Sweden). Rat Dkk-1 (260 μg/ml), murine Dkk-1 (690 μg/ml) and human Dkk-1(900 μg/ml) were immobilized on a CM5 chip surface, and various concentrations (0.78 nM to about 100 nM) of the antibodies were injected over the immobilized Dkk-1 surfaces. The binding sensorgrams were analyzed using BIAevaluation 3.2.

[11] = target: T1, human Dkk-1; assay: as above
Protocol: as §2

[12] = target: T2, murine Dkk-1; assay: as above
Protocol: as §2

Kd [1]: 0.54 nM
Kd [2]: 0.13 nM
Kd [3]: 0.165 nM
binding result [4]: no binding
EC50 (nM), TCF-lef luciferase assay [5]: 5 nM
EC50 (nM), TCF-lef luciferase assay [6]: 4 nM
EC50 (nM), TCF-lef luciferase assay [7]: 11.5 nM
EC50 (nM), restoring ALP activity in ST2 cells given Wnt3a and Dkk-1 [8]: 3.5 nM
EC50 (nM), restoring ALP activity in ST2 cells given Wnt3a and Dkk-1 [9]: 6.1 nM
Kd [10]: 0.29 nM
koff [10]: 1.54e-05 s⁻¹
kon [10]: 54000 M⁻¹ s⁻¹
Kd [11]: < 0.1 nM
koff [11]: < 5e-05 s⁻¹
kon [11]: 52000 M⁻¹ s⁻¹
Kd [12]: < 0.1 nM
koff [12]: < 5e-05 s⁻¹
kon [12]: 54000 M⁻¹ s⁻¹
B1: 11H10 monoclonal antibody (rat) (antibody, IgG1, V domains shown)
VH: EVQLVESGGGLVQPANSLKLSCAASGFTFSDYAMAWVRQSPKKGLEWVATIIYDGSSTYYRDSVKGRFTISRDNAKSTLYLQMDSLRSEDTATYYCATGLGIATDYFDYWGQGVLVTVSS
VL: DIRMTQSPASLSASLGETVNIECLASEDIYSDLAWYQQKPGKSPQLLIYNANSLQNGVPSRFSGSGSGTQYSLKINSLQSEDVATYFCQQYNNYPPTFGGGTKLELKR
notes: Rat hybridoma antibody of the IgG1 isotype; also called rat 11H10; L1H1
